Experimental data as given in patent US20200277339A1 (GENOME PROTECTION, published 2020).
Residue numbers refer to the chain shown, from its start.

Experiments:
[1] = biological target: TLR5 of the cell-based reporter assays; assay: cell-based or functional assay
[2] = biological target: TLR5 of the cell-based reporter assays; assay: cell-based or functional assay; remark: listed apart in the source

B1: CBLB502 mutant MIM4 (ligand)
chain: MRGSHHHHHHGMASMTGGQQMGRDLYDDDDKDPMAQVINTNSLSLLTQNNLNKSQSSLSSAIERLSSGLRINSAKDDAAGQAIANRFTSNIKGLTQASRNANDGISIAQTTEGALNEINNNLQRVRELSVQATNGTNSDSDLKSIQDEIQQRLEEIDRVSNQTQFNGVKVLSQDNQMKIQVGANDGETITIDLQKIDVKSLGLDGFNVNSPGISGGGGGILDSMGTLINEDAAAAKKSTANPLASIDSALSKVDAVRSSLGAIDSAITALGATVTALASAASRIEDADYATEVSNMSKAQILQQAGTSVLAQANQVPQNVLSLLR
Signaling EC50 Normalized by CBLB502 [1]: 37 fold vs CBLB502

B2: CBLB502 variant 467 (ligand)
chain: MRGSHHHHHHGMASMTGGQQMGRDLYDLVPRGSAKDPMAQVINTNSLSLLTQNNLNKSQSSLSSAIERLSSGLRINSAKDDAAGQAIANRFTSNIKGLTQASRNANDGISIAQTTEGALNEINNNLQRVRELSVQATNGTNSDSDLKSIQDEIQQRLEEIDRVSNQTQFNGVKVLSQDNQMKIQVGANDGETITIDLQKIDVKSLGLDGFNVNSPGISGGGGGILDSMGTLINEDAAAAKKSTANPLASIDSALSKVDAVRSSLGAIQNRFDSAITNLGNTVTNLNSARSRIEDA
Relative EC50 vs 502, Signaling (LecZ) [2]: 57 fold vs 502 | Relative EC50 vs 502, Signaling (Luc) [2]: 71 fold vs 502

B3: CBLB502 mutant MIM1 (ligand)
chain: MRGSHHHHHHGMASMTGGQQMGRDLYDDDDKDPMAQVINTNSLSLLTQNNLNKSQSSLSSAIERLSSGLRINSAKDDAAGQAIANRFTSNIKGLTQASRNANDGISIAQTTEGALNEINNNLQRVRELSVQATNGTNSDSDLKSIQDEIQQRLEEIDRVSNQTQFNGVKVLSQDNQMKIQVGANDGETITIDLQKIDVKSLGLDGFNVNSPGISGGGGGILDSMGTLINEDAAAAKKSTANPLASIDSALSKVDAVRSSLGAIQNRFDSAITNLGNTVTALASARSRIEDADYATEVSNMSKAQILQQAGTSVLAQANQVPQNVLSLLR
Signaling EC50 Normalized by CBLB502 [1]: 0.9 fold vs CBLB502

B4: CBLB502 mutant MIM2 (ligand)
chain: B3 chain with R285A
Signaling EC50 Normalized by CBLB502 [1]: 1.2 fold vs CBLB502

B5: CBLB502 mutant MIM3 (ligand)
chain: B3 chain with N273A, N276A, R285A
Signaling EC50 Normalized by CBLB502 [1]: 4.6 fold vs CBLB502

B6: CBLB502 mutant MIM5 (ligand)
chain: B3 chain with Q264A, N265K, R266A, N273A, N276A, R285A
Signaling EC50 Normalized by CBLB502 [1]: 54 fold vs CBLB502

B7: CBLB502 variant 445 (ligand)
chain: MRGSHHHHHHGMASMTGGQQMGRDLYDLVPRGSAKDPMAQVINTNSLSLLTQNNLNKSQSSLSSAIERLSSGLRINSAKDDAAGQAIANRFTSNIKGLTQASRNANDGISIAQTTEGALNEINNNLQRVRELSVQATNGTNSDSDLKSIQDEIQQRLEEIDRVSNQTQFNGVKVLSQDNQMKIQVGANDGETITIDLQKIDVKSLGLDGFNVNSPGISGGGGGILDSMGTLINEDAAAAKKSTANPLASIDSALSKVDAVRSSLGAIQNRFD
Relative EC50 vs 502, Signaling (LecZ) [2]: 694 fold vs 502 | Relative EC50 vs 502, Signaling (Luc) [2]: 141000 fold vs 502

B8: CBLB502 variant MF227C (ligand)
chain: MSGLRINSAKDDAAGQAIANRFTSNIKGLTQASRNANDGISIAQTTEGALNEINNNLQRVRELSVQATNGTNSDSDLKSIQDEIQQRLEEIDRVSNQTQFNGVKVLSQDNQMKIQVGANDGETITIDLQKIDVKSLGLDGFNVNSPGSTANPLASIDSALSKVDAVRSSLGAIQNRFDSAITNLGNTVTNLNSARSRIEDADYANQVPQNVLSLLVPRGSHHHHHHG
Relative EC50 vs 502, Signaling (LecZ) [2]: 5.5 fold vs 502

B9: CBLB502 variant 485D (ligand)
chain: MSGLRINSAKDDAAGQAIANRFTSNIKGLTQASRNANDGISIAQTTEGALNEINNNLQRVRELSVQATNGTNSDSDLKSIQDEIQQRLEEIDRVSNQTQFNGVKVLSQDNQMKIQVGANDGETITIDLQKIDVKSLGLDGFNVNSPGSTANPLASIDSALSKVDAVRSSLGAIDSAITALGNTVTNLNSARSRIEDADYATEVSNMSKAQILQQAGLVPRGSHHHHHHG
Relative EC50 vs 502, Signaling (LecZ) [2]: 44 fold vs 502

B10: CBLB502 variant 461 (ligand)
chain: MRGSHHHHHHGMASMTGGQQMGRDLYDLVPRGSAKDPMAQVINTNSLSLLTQNNLNKSQSSLSSAIERLSSGLRINSAKDDAAGQAIANRFTSNIKGLTQASRNANDGISIAQTTEGALNEINNNLQRVRELSVQATNGTNSDSDLKSIQDEIQQRLEEIDRVSNQTQFNGVKVLSQDNQMKIQVGANDGETITIDLQKIDVKSLGLDGFNVNSPGISGGGGGILDSMGTLINEDAAAAKKSTANPLASIDSALSKVDAVRSSLGAIQNRFDSAITNLGNTVTNLNSAR
Relative EC50 vs 502, Signaling (LecZ) [2]: 105 fold vs 502 | Relative EC50 vs 502, Signaling (Luc) [2]: 97 fold vs 502

B11: CBLB502 mutant MIXC (ligand)
chain: MSGLRINSAKDDAAGQAIANRFTSNIKGLTQASRNANDGISIAQTTEGALNEINNNLQRVRELSVQATNGTNSDSDLKSIQDEIQQRLEEIDRVSNQTQFNGVKVLSQDNQMKIQVGANDGETITIDLQKIDVKSLGLDGFNVNSPGSTANPLASIDSALSKVDAVRSSLGAIQARFAAAIANLGNTVTNLNSARSRIEDADYATEVSNMSKAQILQQAGTSVLAQANQVPQNVLSLLVPRGSHHHHHHG
Signaling EC50 Normalized by CBLB502 [1]: 1.5 fold vs CBLB502

B12: CBLB502 (ligand)
chain: not shown
Relative EC50 vs 502, Signaling (LecZ) [2]: 1 fold vs 502 | Relative EC50 vs 502, Signaling (Luc) [2]: 1 fold vs 502

B13: CBLB502 mutant 33MIMX (ligand)
chain: MRGSHHHHHHGMASMTGGQQMGRDLYDLVPRGSAKDPSGLRINSAKDDAAGQAIANRFTSNIKGLTQASRNAADGISIAQTTEGALNEINNNLQRVRELSVQATNGTNSDSDLKSIQDEIQQRLEEIDRVSNQTQANGVKVLSQDNAMKIQVGANDGAAITIDLQKIDVKSLGLDGFNVNSPGISGGGGGILDSMGTLINEDAAAAKKSTANPLASIDSALSKVDAVRSSLGAIQARFAAAIANLGNTVTNLNSARSRIEDADYATEVSNMSKAQILQQAGTSVLAQANQVPQNVLSLLR
Signaling EC50 Normalized by CBLB502 [1]: 1.3 fold vs CBLB502
